What all share (assay): SPR
The target in one experiment is T1, GST-Atxn1-86Q (UniProt P54253 1-815).
T1 chain: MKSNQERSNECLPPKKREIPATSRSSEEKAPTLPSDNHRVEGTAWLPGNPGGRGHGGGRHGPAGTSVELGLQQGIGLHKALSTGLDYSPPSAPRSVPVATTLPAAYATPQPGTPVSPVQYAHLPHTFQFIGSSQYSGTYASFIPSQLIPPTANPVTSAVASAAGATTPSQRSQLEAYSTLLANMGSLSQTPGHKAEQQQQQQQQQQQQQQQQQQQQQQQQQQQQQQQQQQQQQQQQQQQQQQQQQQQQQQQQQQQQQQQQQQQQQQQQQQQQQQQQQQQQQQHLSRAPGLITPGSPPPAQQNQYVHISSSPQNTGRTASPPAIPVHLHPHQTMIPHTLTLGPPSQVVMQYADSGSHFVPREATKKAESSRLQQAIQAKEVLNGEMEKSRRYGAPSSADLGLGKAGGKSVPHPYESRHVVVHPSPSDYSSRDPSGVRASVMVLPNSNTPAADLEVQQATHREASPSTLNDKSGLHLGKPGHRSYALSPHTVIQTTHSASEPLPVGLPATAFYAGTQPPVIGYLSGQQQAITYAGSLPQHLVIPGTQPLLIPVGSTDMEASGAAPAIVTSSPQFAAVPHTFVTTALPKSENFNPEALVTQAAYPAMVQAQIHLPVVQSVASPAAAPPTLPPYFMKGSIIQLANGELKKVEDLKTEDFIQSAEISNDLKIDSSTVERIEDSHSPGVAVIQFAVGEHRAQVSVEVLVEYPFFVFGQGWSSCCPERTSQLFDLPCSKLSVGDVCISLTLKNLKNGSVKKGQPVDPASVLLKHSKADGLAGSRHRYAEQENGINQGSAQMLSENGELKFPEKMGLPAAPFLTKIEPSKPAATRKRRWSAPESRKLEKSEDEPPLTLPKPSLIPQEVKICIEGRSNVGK

In a further experiment the target is T2, GST-Atxn1-33Q (UniProt P54253 1-815).
T2 chain: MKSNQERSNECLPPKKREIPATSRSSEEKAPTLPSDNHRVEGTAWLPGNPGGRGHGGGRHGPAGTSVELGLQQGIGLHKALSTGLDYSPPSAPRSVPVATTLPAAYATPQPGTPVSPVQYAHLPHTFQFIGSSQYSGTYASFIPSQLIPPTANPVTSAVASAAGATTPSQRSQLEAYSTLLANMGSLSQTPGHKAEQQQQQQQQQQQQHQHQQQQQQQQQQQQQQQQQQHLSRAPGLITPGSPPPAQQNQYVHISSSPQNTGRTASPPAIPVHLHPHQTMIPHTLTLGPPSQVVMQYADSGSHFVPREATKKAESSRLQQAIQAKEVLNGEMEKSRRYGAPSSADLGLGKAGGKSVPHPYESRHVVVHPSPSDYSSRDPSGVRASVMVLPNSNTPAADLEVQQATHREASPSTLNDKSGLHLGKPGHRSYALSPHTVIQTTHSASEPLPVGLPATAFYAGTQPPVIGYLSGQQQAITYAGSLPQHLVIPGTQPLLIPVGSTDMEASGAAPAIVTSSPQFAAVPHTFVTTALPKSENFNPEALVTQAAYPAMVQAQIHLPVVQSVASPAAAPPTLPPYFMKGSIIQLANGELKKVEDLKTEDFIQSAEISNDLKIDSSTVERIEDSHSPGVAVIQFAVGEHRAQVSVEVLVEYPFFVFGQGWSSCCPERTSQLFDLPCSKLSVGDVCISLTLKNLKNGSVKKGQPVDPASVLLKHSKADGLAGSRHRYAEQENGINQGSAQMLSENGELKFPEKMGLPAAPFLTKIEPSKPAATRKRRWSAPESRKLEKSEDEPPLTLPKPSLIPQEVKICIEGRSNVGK

The target in the next experiment is T3, GST-Htt-20Q.
T3 chain: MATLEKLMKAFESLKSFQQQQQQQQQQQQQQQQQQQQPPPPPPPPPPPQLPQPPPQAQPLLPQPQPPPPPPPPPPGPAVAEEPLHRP

For another experiment, the target named is T4, GST-Htt-110Q.
T4 chain: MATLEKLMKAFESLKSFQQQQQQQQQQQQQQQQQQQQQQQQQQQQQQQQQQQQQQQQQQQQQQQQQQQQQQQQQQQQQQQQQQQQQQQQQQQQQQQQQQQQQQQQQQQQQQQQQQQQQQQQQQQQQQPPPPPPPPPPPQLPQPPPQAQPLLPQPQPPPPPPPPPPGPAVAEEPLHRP

Here are results for seven molecules from article PMC9813255 (2023).

A word on the Kd: it is the free concentration of one partner at which half of the binding sites on the other are occupied at equilibrium, for simple one-to-one binding.

B1: PQBP5-Δ2 (protein)
chain: PRTRNRVGLLDCALNSVTADSEINSLPTISALKFNGALTMAVGTTTGQVLLYDLRSDKPLLVKDHQYGLPIKSVHFQDSLDLILSADSRIVKMWNKNSGKIFTSLEPEHDLNDVCLYPNSGMLLTANETPKMGIYYIPVLGPAPRWCSFLDNLTEELEENPESTVYDDYKFVTKKDLENLGLTHLIGSPFLRAYMHGFFMDIRLYHKVKLMVNPFAYEEYRKDKIRQKIEETRAQRVQLKKLPKVNKELALKLIEEEEEKQKSTWKKKVKSLPNILTDDRFKVMFENPDFQVDEESEEFRLLNPLVSKISEKRKKKLRLLEQQELREKEEEEEPEGKPSDAESSESSDDEKAWVEEVRKQRRLLQQEEKVKRQERLKEDQQTVLKPQFYEIKAGEEFRSFKDSATKQKLMNKTLEDRLKIEAKNGTLSVSDTTVGSKQLTFTLKRSEQQKKQQEAEKLHRQERKRLRRSAGHLKSRHKRGRSFH
modifications: Delta number assigned from the order of the constructs in the methods; initiator Met from the primer and tag omitted.
On to B1, for which the Kd amounted to 183 nM with GST-Atxn1-86Q and 830 nM with GST-Atxn1-33Q.

B2: PQBP5-Δ2 (protein)
chain: PRTRNRVGLLDCALNSVTADSEINSLPTISALKFNGALTMAVGTTTGQVLLYDLRSDKPLLVKDHQYGLPIKSVHFQDSLDLILSADSRIVKMWNKNSGKIFTSLEPEHDLNDVCLYPNSGMLLTANETPKMGIYYIPVLGPAPRWCSFLDNLTEELEENPESTVYDDYKFVTKKDLENLGLTHLIGSPFLRAYMHGFFMDIRLYHKVKLMVNPFAYEEYRKDKIRQKIEETRAQRVQLKKLPKVNKELALKLIEEEEEKQKSTWKKKVKSLPNILTDDRFKVMFENPDFQVDEESEEFRLLNPLVSKISEKRKKKLRLLEQQELREKEEEEEPEGKPSDAESSESSDDEKAWVEEVRKQRRLLQQEEKVKRQERLKEDQQTVLKPQFYEIKAGEEFRSFKDSATKQKLMNKTLEDRLKIEAKNGTLSVSDTTVGSKQLTFTLKRSEQQKKQQEAEKLHRQERKRLRRSAGHLKSRHKRGRSFH
modifications: Delta number assigned from the order of the constructs in the methods; initiator Met from the primer and tag omitted. Exon 1 ends at ...LHRP, which agrees with the printed Htt reverse primer. The entry carries 21Q (18-38); one Q is removed to give the 20Q of the assayed protein name. The plasmid is called 17Q, so the repeat count is ambiguous. GST omitted.
On to B2, for which, in the experiment with GST-Htt-20Q, the dissociation constant Kd stood at 463 nM.

B3: full-length human PQBP5 (His-tag fusion protein) (natural protein)
chain: MQVSSLNEVKIYSLSCGKSLPEWLSDRKKRALQKKDVDVRRRIELIQDFEMPTVCTTIKVSKDGQYILATGTYKPRVRCYDTYQLSLKFERCLDSEVVTFEILSDDYSKIVFLHNDRYIEFHSQSGFYYKTRIPKFGRDFSYHYPSCDLYFVGASSEVYRLNLEQGRYLNPLQTDAAENNVCDINSVHGLFATGTIEGRVECWDPRTRNRVGLLDCALNSVTADSEINSLPTISALKFNGALTMAVGTTTGQVLLYDLRSDKPLLVKDHQYGLPIKSVHFQDSLDLILSADSRIVKMWNKNSGKIFTSLEPEHDLNDVCLYPNSGMLLTANETPKMGIYYIPVLGPAPRWCSFLDNLTEELEENPESTVYDDYKFVTKKDLENLGLTHLIGSPFLRAYMHGFFMDIRLYHKVKLMVNPFAYEEYRKDKIRQKIEETRAQRVQLKKLPKVNKELALKLIEEEEEKQKSTWKKKVKSLPNILTDDRFKVMFENPDFQVDEESEEFRLLNPLVSKISEKRKKKLRLLEQQELREKEEEEEPEGKPSDAESSESSDDEKAWVEEVRKQRRLLQQEEKVKRQERLKEDQQTVLKPQFYEIKAGEEFRSFKDSATKQKLMNKTLEDRLKIEAKNGTLSVSDTTVGSKQLTFTLKRSEQQKKQQEAEKLHRQERKRLRRSAGHLKSRHKRGRSFH
modifications: Exon 1 with the polyQ tract (18-38, 21Q) repeated to 110Q, as in the assayed protein name. The plasmid is called 103Q, so the repeat count is ambiguous. GST omitted.
As to B3, in the experiment with GST-Htt-110Q, the Kd worked out at 0.00362 nM.

B4: PQBP5-Δ1 (protein)
chain: TYQLSLKFERCLDSEVVTFEILSDDYSKIVFLHNDRYIEFHSQSGFYYKTRIPKFGRDFSYHYPSCDLYFVGASSEVYRLNLEQGRYLNPLQTDAAENNVCDINSVHGLFATGTIEGRVECWDPRTRNRVGLLDCALNSVTADSEINSLPTISALKFNGALTMAVGTTTGQVLLYDLRSDKPLLVKDHQYGLPIKSVHFQDSLDLILSADSRIVKMWNKNSGKIFTSLEPEHDLNDVCLYPNSGMLLTANETPKMGIYYIPVLGPAPRWCSFLDNLTEELEENPESTVYDDYKFVTKKDLENLGLTHLIGSPFLRAYMHGFFMDIRLYHKVKLMVNPFAYEEYRKDKIRQKIEETRAQRVQLKKLPKVNKELALKLIEEEEEKQKSTWKKKVKSLPNILTDDRFKVMFENPDFQVDEESEEFRLLNPLVSKISEKRKKKLRLLEQQELREKEEEEEPEGKPSDAESSESSDDEKAWVEEVRKQRRLLQQEEKVKRQERLKEDQQTVLKPQFYEIKAGEEFRSFKDSATKQKLMNKTLEDRLKIEAKNGTLSVSDTTVGSKQLTFTLKRSEQQKKQQEAEKLHRQERKRLRRSAGHLKSRHKRGRSFH
modifications: Delta number assigned from the order of the constructs in the methods; initiator Met from the primer and tag omitted.
Turning to B4, the Kd with GST-Atxn1-86Q is 0.294 nM; with GST-Atxn1-33Q, 0.355 nM.

B5: PQBP5-Δ1 (protein)
chain: TYQLSLKFERCLDSEVVTFEILSDDYSKIVFLHNDRYIEFHSQSGFYYKTRIPKFGRDFSYHYPSCDLYFVGASSEVYRLNLEQGRYLNPLQTDAAENNVCDINSVHGLFATGTIEGRVECWDPRTRNRVGLLDCALNSVTADSEINSLPTISALKFNGALTMAVGTTTGQVLLYDLRSDKPLLVKDHQYGLPIKSVHFQDSLDLILSADSRIVKMWNKNSGKIFTSLEPEHDLNDVCLYPNSGMLLTANETPKMGIYYIPVLGPAPRWCSFLDNLTEELEENPESTVYDDYKFVTKKDLENLGLTHLIGSPFLRAYMHGFFMDIRLYHKVKLMVNPFAYEEYRKDKIRQKIEETRAQRVQLKKLPKVNKELALKLIEEEEEKQKSTWKKKVKSLPNILTDDRFKVMFENPDFQVDEESEEFRLLNPLVSKISEKRKKKLRLLEQQELREKEEEEEPEGKPSDAESSESSDDEKAWVEEVRKQRRLLQQEEKVKRQERLKEDQQTVLKPQFYEIKAGEEFRSFKDSATKQKLMNKTLEDRLKIEAKNGTLSVSDTTVGSKQLTFTLKRSEQQKKQQEAEKLHRQERKRLRRSAGHLKSRHKRGRSFH
modifications: Delta number assigned from the order of the constructs in the methods; initiator Met from the primer and tag omitted. Exon 1 ends at ...LHRP, which agrees with the printed Htt reverse primer. The entry carries 21Q (18-38); one Q is removed to give the 20Q of the assayed protein name. The plasmid is called 17Q, so the repeat count is ambiguous. GST omitted.
As to B5, the Kd with GST-Htt-20Q came out at 2.67 nM.

B6: PQBP5-Δ5 (protein)
chain: MQVSSLNEVKIYSLSCGKSLPEWLSDRKKRALQKKDVDVRRRIELIQDFEMPTVCTTIKVSKDGQYILATGTYKPRVRCYDTYQLSLKFERCLDSEVVTFEILSDDYSKIVFLHNDRYIEFHSQSGFYYKTRIPKFGRDFSYHYPSCDLYFVGASSEVYRLNLEQGRYLNPLQTDAAENNVCDINSVHGLFATGTIEGRVECWDPRTRNRVGLLDCALNSVTADSEINSLPTISALKFNGALTMAVGTTTGQVLLYDLRSDKPLLVKDHQYGLPIKSVHFQDSLDLILSADSRIVKMWNKNSGKIFTSLEPEHDLNDVCLYPNSGMLLTANETPKMGIYYIPVLGPAPRWCSFLDNLTEELEENPESTVYDDYKFVTKKDLENLGLTHLIGSPFLRAYMHGFFMDIRLYHKVKLMVNPFAYEEYRKDKIRQKIEETRAQRVQLKKLPKVNKELALKLIEEEEEKQKSTWKKKVKSLPNILT
modifications: Delta number assigned from the order of the constructs in the methods (fifth: 1-481, lacking NUC153); tag omitted.
In the case of B6, the Kd came to 0.128 nM with GST-Atxn1-86Q and 0.194 nM with GST-Atxn1-33Q.

B7: PQBP5-Δ5 (protein)
chain: MQVSSLNEVKIYSLSCGKSLPEWLSDRKKRALQKKDVDVRRRIELIQDFEMPTVCTTIKVSKDGQYILATGTYKPRVRCYDTYQLSLKFERCLDSEVVTFEILSDDYSKIVFLHNDRYIEFHSQSGFYYKTRIPKFGRDFSYHYPSCDLYFVGASSEVYRLNLEQGRYLNPLQTDAAENNVCDINSVHGLFATGTIEGRVECWDPRTRNRVGLLDCALNSVTADSEINSLPTISALKFNGALTMAVGTTTGQVLLYDLRSDKPLLVKDHQYGLPIKSVHFQDSLDLILSADSRIVKMWNKNSGKIFTSLEPEHDLNDVCLYPNSGMLLTANETPKMGIYYIPVLGPAPRWCSFLDNLTEELEENPESTVYDDYKFVTKKDLENLGLTHLIGSPFLRAYMHGFFMDIRLYHKVKLMVNPFAYEEYRKDKIRQKIEETRAQRVQLKKLPKVNKELALKLIEEEEEKQKSTWKKKVKSLPNILT
modifications: Delta number assigned from the order of the constructs in the methods (fifth: 1-481, lacking NUC153); tag omitted. Exon 1 with the polyQ tract (18-38, 21Q) repeated to 110Q, as in the assayed protein name. The plasmid is called 103Q, so the repeat count is ambiguous. GST omitted.
In turn, B7 came in with an equilibrium dissociation constant (Kd) with GST-Htt-110Q of 0.424 nM.
